Reference: publication PMC4947014

Legend:
Im7, wild type (E. coli) = test: stopped-flow fluorescence
[1] = molecular target: Im7 L18AL19AL37AH40W (E. coli); test: stopped-flow fluorescence
[2] = molecular target: Im7 L18AL19AL37AH40W (E. coli)

Binder | kobs of release of native Im7 (double mixing, chase after 6 ms) (Im7, wild type (E. coli)) [s⁻¹] | koff (Im7, wild type (E. coli)) [s⁻¹] | kon [1] [M⁻¹ s⁻¹] | stoichiometry N [2] | fold increase in affinity (Kd) over SpyWT [1] [fold] | fold lower release rate constant (koff) than SpyWT [1] [fold]
Spy, wild type (natural protein) ADTTTAAPADAKPMMHHKGKFGPHQDMMFKDLNLTDAQKQQIREIMKGQRDQMKRPPLEERRAMHDIIASDTFDKVKAEAQIAKMEEQRKANMLAHMETQNKIYNILTPEQKKQFNANFEKRLTERPAAKGKMPATAE | 141 | 131 | 1.2e+08 | 1 | – | –
Spy H96L (natural protein) ADTTTAAPADAKPMMHHKGKFGPHQDMMFKDLNLTDAQKQQIREIMKGQRDQMKRPPLEERRAMHDIIASDTFDKVKAEAQIAKMEEQRKANMLALMETQNKIYNILTPEQKKQFNANFEKRLTERPAAKGKMPATAE | – | – | – | – | 7 | 5
Spy Q100L (natural protein) ADTTTAAPADAKPMMHHKGKFGPHQDMMFKDLNLTDAQKQQIREIMKGQRDQMKRPPLEERRAMHDIIASDTFDKVKAEAQIAKMEEQRKANMLAHMETLNKIYNILTPEQKKQFNANFEKRLTERPAAKGKMPATAE | – | – | – | – | 150 | 130
